Assay results from publication PMC11240526, “Method for B Cell Receptor Enrichment in Malignant B Cells” (Cancers, 2024).

T1: CD79a (human (endogenous in Raji), UniProt P11912 33-226)
T1 construct: CD79a (Igα), signalling subunit of the B cell receptor, human, endogenous in the Raji B lymphoblastoid cell line; the text prints P11912; also called Igα; Ig-alpha; source: endogenous, Raji cells, membrane fraction solubilised in Triton X-100 or DOC lysis buffer
T1 sequence (looked up): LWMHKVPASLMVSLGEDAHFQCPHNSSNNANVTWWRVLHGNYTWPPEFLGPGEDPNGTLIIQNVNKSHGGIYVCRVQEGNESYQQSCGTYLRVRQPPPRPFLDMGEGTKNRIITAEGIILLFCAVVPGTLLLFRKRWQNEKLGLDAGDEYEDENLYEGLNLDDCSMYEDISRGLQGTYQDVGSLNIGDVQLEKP


What was measured:
[1] = target: CD79a (human (endogenous in Raji)) (UniProt P11912); assay: co-IP; antibody to the bait (anti-CD79a, anti-CD79b or anti-IgM) with Protein G agarose beads; Raji membrane fraction solubilised in 1% Triton X-100 lysis buffer in PBS; overnight at 4 °C; bead eluate read by Western blot, band intensities normalised to protein load
CD79a = target: T1, CD79a; assay: as above; conditions: partners not purified

Molecule	fold enrichment in the bead eluate over input (band intensity normalised to protein load) [1] [fold]	fold enrichment in the bead eluate over input (band intensity normalised to protein load) (CD79a) [fold]
membrane immunoglobulin M (mIgM) of Raji cells (complex)	30	–
CD79b (natural protein, human (endogenous in Raji), UniProt P40259 29-229, looked up, CD79b (Igβ), signalling subunit of the B cell receptor, human, endogenous in the Raji B lymphoblastoid cell line; also called Igβ; Ig-beta; source: endogenous, Raji cells, membrane fraction solubilised in Triton X-100 or DOC lysis buffer) ARSEDRYRNPKGSACSRIWQSPRFIARKRGFTVKMHCYMNSASGNVSWLWKQEMDENPQQLKLEKGRMEESQNESLATLTIQGIRFEDNGIYFCQQKCNNTSEVYQGCGTELRVMGFSTLAQLKQRNTLKDGIIMIQTLLIILFIIVPIFLLLDKDDSKAGMEEDHTYEGLDIDQTATYEDIVTLRTGEVKWSVGEHPGQE	–	~12
